Our source for the reactivity (Au/ml values is US20160159922A1.

The assay has as its target citrullinated human fibrinogen peptide, residues 36-52 (cit-fib) (human). Nature of the assay: reactivity test against citrullinated peptide; arbitrary units relative to a serum pool standard; antibody at 5 ug/ml.

B1: ACPA11 (antibody, V domains shown)
VH: HLQLQESGPKLVKTSETLSLNCSVSRESIVRNDKFWGWVRQPPGKGLEWIGSINPLGRTFYTTSLKDRIRISFDTSEGYFSLSVASVTAADTAIYYCATDGEGVLFDEWSQGTLVTVSS
VL: QPVMTQPPSACGTPGQRVTIPCSGNTSNIGYNIVNWYQQVPGTAPKLLIYDNDKRPSGVPDRFSASKSVTSASLVISGLQSADEADYYCAVWDDDLSGVVIGEGTKLTVL
Turning to B1, the reactivity (Au/ml at 5 ug/ml) is 21 Au/ml.
